The results in this text go back to patent US20250042994A1 (HAINAN SIMCERE ZAIMING PHARMACEUTICAL, published 2025).

The target of experiment [1] is T1, human CD19 exon1-3-His tag protein (human, UniProt P15391 20-186, limits assumed).
T1 construct: membrane-distal part of the extracellular region, made in HEK293E cells; not shown: His tag
T1 sequence (looked up): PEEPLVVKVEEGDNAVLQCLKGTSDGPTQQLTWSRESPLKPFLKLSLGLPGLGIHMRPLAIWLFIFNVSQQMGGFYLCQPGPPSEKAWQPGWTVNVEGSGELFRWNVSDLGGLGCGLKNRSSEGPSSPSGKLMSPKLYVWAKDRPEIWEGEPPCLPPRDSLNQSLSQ
Kind of experiment: ELISA on coated human CD19 exon 1-3-His. (An ELISA detects its analyte on a solid surface through an enzyme-linked reagent.)

Experiment [2] concerns the target T2, Human CD19-his protein (human, UniProt P15391 20-291).
T2 construct: bought protein; also called recombinant human CD19-His; CD19 full-length protein; not shown: His tag
T2 sequence (looked up): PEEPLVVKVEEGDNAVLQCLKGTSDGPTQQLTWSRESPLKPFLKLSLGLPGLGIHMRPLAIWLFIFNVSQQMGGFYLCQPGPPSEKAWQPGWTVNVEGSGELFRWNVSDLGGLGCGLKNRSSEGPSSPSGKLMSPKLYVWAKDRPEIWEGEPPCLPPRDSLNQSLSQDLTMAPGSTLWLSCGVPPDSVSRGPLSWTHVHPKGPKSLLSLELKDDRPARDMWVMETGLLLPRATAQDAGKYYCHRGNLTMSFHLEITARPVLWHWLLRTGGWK
Put plainly: SPR Biacore, Ab captured on Protein A, CD19-His analyte. The method, boiled down: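 Apparent KD came from a Langmuir 1:1 fit of double-referenced sensorgrams. Recombinant human CD19-His analyte (top 200 nM, 1:1 serial dilution, 5 concentrations) flowed over Protein A-captured antibody for 240 s at 30 μl/min, then buffer for up to 600 s. Running buffer HBS-EP+ at 25 °C; regeneration with 10 mM glycine pH 1.5.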

B1: F3.133.14 (antibody, human IgG1, V domains shown)
VH: QVQLQQPGAELVMPGASVKLSCKASGYTFTNYWMHWVKQRPGQGLEWIGEIDPSDYYANYNQKFKGKATLTVDKSSSTAYMQLSSLTSEDSAVYYCARSHYYANSYNYWGQGTTLTVSS
VL: EIELTQSPTTMAASPGEKITITCSASSSISSDYLHWYQQKPGFSPKLLIYRTSNLASGLPARFSGSGSGTSYSLTIGTMEAEDVATYYCQQGSSVPRMLTFGAGTKLELK
notes: human-murine chimeric antibody, human IgG1 constant
Turning to B1, the binding result in experiment [1] was “no binding (tested: 100 nM)”. Further, in experiment [2], the Kd was 0.974 nM, the koff was 8.84e-05 s⁻¹ and the kon stood at 90800 M⁻¹ s⁻¹.

B2: F4.191.1 (antibody, human IgG1, V domains shown)
VH: QVQLQQPGAELVRPGASVKLSCKASGYTFTSYWINWVKQRPGQGLEWIGNIHPSDSYTNYNQKFKDKATLTVDKSSSTAYMQFSSPTSEDSAVYYCTREDYYYGSNYDAMDYWGQGTSVTVSS
VL: DIVMTQSHKFMSTSVGDRVNITCKASQDVGSSVAWYQQKPGQSPKLLIYWASTRHAGVPDRFTGSGSGADFTLTISNVQSEDLADYFCQQYSTYPLTFGAGTKLELK
notes: as for B1
Regarding B2, in experiment [1], the binding result was “no binding (tested: 100 nM)”. For the same molecule, in experiment [2], the Kd was found to be 1.9 nM, the koff is 0.000388 s⁻¹ and the kon came to 205000 M⁻¹ s⁻¹.

B3: F4.15.9 (antibody, human IgG1, V domains shown)
VH: QVQLQQSGPELVKPGASVKISCKASGYAFSSSWMNWLKQRPGQGLEWIGRIYPGDGDTNYNGKFKGKATLTADESSSTAYMQLSSLTSVDSAVYFCARGITTIITIAWFASWGQGTLVTVSA
VL: QIVLSQSPTILSASPGEKVTMTCRASSSVSYMHWYQQKPGSSPKPWIYATSNLASGVPPRFSGSGSGTSYSLTISRVGAEDAATYYCQQWSSDPWTFGGGTKLEIK
notes: as for B1
B3: in experiment [1], the binding result is reported as “no binding (tested: 100 nM)”. In experiment [2], this molecule returned a Kd of 2.72 nM, a koff of 0.000949 s⁻¹ and a kon of 348000 M⁻¹ s⁻¹.

B4: F4.35.5 (antibody, human IgG1, V domains shown)
VH: EIQLQQSGPELVKPGASVKVSCKASGYAFTSYNMYWVKQSHGKSLEWIGYIDPYNGDTRYNQKFKGKATLTVDKSSSTAYMHLNSLTSEDSAVYYCTRSGTGRDYWGQGTTLTVSS
VL: QIVLTQSPAIMSASPGEKVTMTCSASSSISYMFWFQQKPGSSPRLLIYDTSSLASGVPVRFSGSGSGTSYTLTISRMEAEDAATYYCQQWSNYPYTFGGGTKLEMK
notes: as for B1
On to B4, for which the binding result in experiment [1] is “no binding (tested: 100 nM)”. In addition, in experiment [2], the Kd is 15.3 nM, the koff worked out at 0.00351 s⁻¹ and the kon is 229000 M⁻¹ s⁻¹.

B5: F4.22.6 (antibody, human IgG1, V domains shown)
VH: QVQLQQSGPELVKPGASVKISCKASGYAFSSFWMNWVKQRPGQGLEWIGRIYPGDGDTNYNGKFKGKATLTADKSSTTAYMHLSSLTSVDSAVYFCTRSVITAVVDWYFDVWGAGTTVTVSS
VL: QIVLSQSPAILSASPGEKVTLTCRASSSVNFMHWYQQKPGSSPKPWIYATSNLASGAPARFSGSGSGTSYSLTISRVEAEDAAAYYCQQWSSYPIFTFGSGTKLEIK
notes: as for B1
B5: the binding result in experiment [1] was “no binding (tested: 100 nM)”. In experiment [2], this molecule had a Kd of 5.94 nM, a koff of 0.00147 s⁻¹ and a kon of 248000 M⁻¹ s⁻¹.

B6: F4.21.2 (antibody, human IgG1, V domains shown)
VH: QVQLKQSGPGLVQPSQSLSITCTVSGFSLSTYGVHWVRQSPGRGLEWLGVIWIGGTTDYNAAFISRLTISKDNSRGQVFFKMDSLQANDTAIYYCARKGYYKYDGGYYYAMDYWGQGTSVTVSS
VL: DIQMTQSSSYLSVSLGGRVTITCKASDHINNWLAWYQQKPGNAPWLLISGATSLETGVPSRFSGSGSGKDYTLSISSLQTEDVATYYCQQYWSTPLTFGAGTKLELK
notes: as for B1
Consider B6, for which the binding result in experiment [1] was “no binding (tested: 100 nM)”. Also, in experiment [2], the Kd was 0.904 nM, the koff was found to be 0.000167 s⁻¹ and the kon is 185000 M⁻¹ s⁻¹.

B7: F4.33.12 (antibody, human IgG1, V domains shown)
VH: QVQLQQSGAELVRPGSSVKISCKGSGYAFSSYWMNWVKQRPGQGLEWIGQIYPGDGDTNYNGKFKGKATLTADKSSSTAYMQLSSLTSEDSAVYFCARAGFYYGSDSSMDYWGQGTSVTVSS
VL: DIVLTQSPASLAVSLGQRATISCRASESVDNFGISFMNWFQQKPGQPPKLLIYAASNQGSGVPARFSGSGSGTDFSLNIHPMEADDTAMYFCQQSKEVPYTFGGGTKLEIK
notes: as for B1
With B7, the binding result in experiment [1] is listed as “no binding (tested: 100 nM)”. Moreover, in experiment [2], the affinity, expressed as Kd, was 3.45 nM; the koff amounted to 0.000452 s⁻¹; the kon stood at 131000 M⁻¹ s⁻¹.

B8: F4.48.12 (antibody, human IgG1, V domains shown)
VH: QMQLKESGPGLVAPSQSLSITCTVSGFSLTDYGVSWIRQPPGKGLEWLGVIWGSGSTFYNSALTSRLSISKDNSKSQVFLKMNSLQTADTAMYFCAKHHYYGGSFAMDYWGQGTSVTVSS
VL: DIQMTQASSSLSASLGDRVTISCKTSQDISNYLNWYQQKPDGTFKLLIHYTSRLHSGVPSRFSGSGSGSDYSLTISNLEREDIATYFCQQGNSLPYTFGGGTKLEMK
notes: as for B1
Regarding B8, in experiment [1], the binding result is listed as “no binding (tested: 100 nM)”. For the same molecule, in experiment [2], the Kd stood at 0.487 nM, the koff worked out at 0.000129 s⁻¹ and the kon amounted to 264000 M⁻¹ s⁻¹.

B9: F4.18.13 (antibody, human IgG1, V domains shown)
VH: QVQLQQSGPELVKPGASVKISCKASGYAFSSFWMNWVKQRPGEGLEWIGRIYPGDGDTNYNGKFKGKATLTADDSSSTAYMQLSSLTSVDSAVYFCAREVIAAVVTTDFDYWGQGTTLTVSS
VL: DIQMTQTTSSLSASLGDRVTISCRTSQDISNYLNWYLQKPDGTVKLLIYYTSGLHSGVPSRFSGSGSGTDYSLTISNLEPEDIATYFCQQGKTLPYTFGGGTKLEIK
notes: as for B1
For B9, in experiment [1], the binding result is recorded as “no binding (tested: 100 nM)”. In addition, in experiment [2], binding was characterised by a dissociation constant (Kd) of 0.362 nM, the koff turned out to be 0.000171 s⁻¹ and the kon was 472000 M⁻¹ s⁻¹.

B10: F4.41.1 (antibody, human IgG1, V domains shown)
VH: QVQLQQSGAELVRPGTSVKVSCKASGYAFTNYLIEWVKQRPGQGLEWIGVINPGSGDTLYNEKFKGKATLTADKSSTTAYMQLSGLTSDVSAIYFCARSPPITTIVADYFDYWGQGTTLTVSS
VL: DIQMTQTTSSLSASLGDRVTISCRASQDISNYLNWYQQKPDGTVKLLIYYTSRLHSGVPSRFSGSGSGADYSLTISNLEQEDIATYFCQQGKTLPYTFGGGTKLEIK
notes: as for B1
Consider B10, for which the binding result in experiment [1] is on record as “no binding (tested: 100 nM)”. Also, in experiment [2], the Kd is 13.4 nM, the koff turned out to be 0.00239 s⁻¹ and the kon was found to be 179000 M⁻¹ s⁻¹.

B11: F4.4.6 (antibody, human IgG1, V domains shown)
VH: QVQLQQSGAELARPGASVKLSCKASGYTFTSYWMQWVKQRPGQGLEWIGAIYPGDGDSRYTQKFKGKATLTADKSSSTAYMQLSSLASEDSAVYYCARSTTTVLGNNFEYWGQGTTLTVSS
VL: QIVLTQSPAIMSALPGEKVTMTCSASSSVSSMHWYQQKSGTSPKRWIYDTSKLASGVPARFSGSGSGTSYSLTISSMEAEDAATYYCQQWSSNPWTFGGGTKLEIK
notes: as for B1
For the molecule B11, the binding result in experiment [1] is “no binding (tested: 100 nM)”. In experiment [2], this molecule showed a Kd of 9.47 nM, a koff of 0.0019 s⁻¹ and a kon of 201000 M⁻¹ s⁻¹.

B12: F4.37.6 (antibody, human IgG1, V domains shown)
VH: QVQLQQSGAELARPGASVKLSCKASGYTFTSFWMQWLKQRPGQGLEWIGTIYPGDGDTRYTQKFKGKATLTADKSSNTAYMQLSSLASEDSAVYYCARGALSNYGGFAYWGQGTLVTVSA
VL: NIVLTQSPASLAVSLGQRATISCRASESVDSYGHSFMHWYQQKPGQPPKLLIYLASNLESGVPARFSGSGSRTDFTLTIDPVEADDAATYYCQQNNEDPWTFGGGTKLEIK
notes: as for B1
Turning to B12, in experiment [1], the binding result is on record as “no binding (tested: 100 nM)”. In addition, in experiment [2], binding was put at a Kd of 9.11 nM, the koff was determined as 0.00327 s⁻¹ and the kon turned out to be 359000 M⁻¹ s⁻¹.

The term Kd denotes the concentration at which binding is half-saturated. Lower therefore signals higher affinity. Usually koff stands for the first-order rate constant of dissociation. For orientation: kon means the second-order rate constant of association. Read a high kon as faster complex formation.
